Source: paper PMC8326117 (2021)

Target: SARS-CoV-2 S-protein RBD (SARS-CoV-2, UniProt P0DTC2)
Experiment: SPR

## KKKKKKDKFNHEAEDLFY [S-protein neutralizing peptide AYn1]
  koff: 0.001 s⁻¹
